Molecular target: A型肉毒毒素 (botulinum toxin type A, sample solution of Example 4) (Clostridium botulinum) (UniProt P0DPI0)
UniProt P0DPI0, sequence (P0DPI0 868-1296 limits assumed): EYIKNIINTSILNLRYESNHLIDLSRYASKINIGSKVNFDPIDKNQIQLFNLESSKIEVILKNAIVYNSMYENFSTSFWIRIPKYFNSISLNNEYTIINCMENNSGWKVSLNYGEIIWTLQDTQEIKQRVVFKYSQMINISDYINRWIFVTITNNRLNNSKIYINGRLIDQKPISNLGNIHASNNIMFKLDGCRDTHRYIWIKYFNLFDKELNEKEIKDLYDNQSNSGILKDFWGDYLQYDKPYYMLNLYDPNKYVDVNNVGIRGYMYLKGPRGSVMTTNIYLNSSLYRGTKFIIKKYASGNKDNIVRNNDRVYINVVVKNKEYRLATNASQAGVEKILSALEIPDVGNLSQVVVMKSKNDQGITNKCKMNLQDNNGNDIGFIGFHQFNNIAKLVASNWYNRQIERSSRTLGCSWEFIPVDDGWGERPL

Row | Binder | 检测限 (detection limit of the sandwich test) [ng/mL]
1 | BoNT/AHc单克隆抗体细胞株401 (monoclonal antibody of hybridoma cell line 401) (antibody) VH: LTMDFGLSLVFLVLTLKGVKCEVQLVESGGGLVKPGGSLKLSCAASGFAFSTSDMSWVRQTPEKRLEWVTYITSGAGNTNYPDTVKGRFTISRDNAKNTLYVQMSSLKSEDTAMYYCARQSRWSLALDYWGQGTLVTVSAAKTTPPSVYPLAPVCGG VL: LTMETDTLLLWVLLLWVPGSTGDIVLTQSPASLAVSLGQRATISYRGSNSVSISAYSYMHWNQQKPGQPPRLLIYLVWNQESGVPARFSGSGSGTDFTLNIHPVEEEDAATYYCQHITELTRSEGGPSWKSNGLMLHQLYPSPTIQ | 20
2 | BoNT/AHc单克隆抗体细胞株1103 (monoclonal antibody of hybridoma cell line 1103) (antibody) VH: LTMNFGLSWVFLLTLLHGFQCEVKLVKSGGGSVQPGGSLRLSCTTSGFTFSDSYMQWVRQPLGKRLEWITAGRHKANEYTTEWSASTRGRFIVSRDTSQSILNLQMNALRTEDPAISYCARDDCPHFILPRSYYFFDIWGAGTTVTVSSAKTTPPSVYPLAPVCGG VL: DIVLTQSPASLAVSLGQRATISYRPSKSVSTSRYSYMHWNQQKPGQPPRLLIYLESNLASGVPARFSGSGSGTDFTLNIHPVEEEDAATYYCQLITELTRSEGGPSWKYNGLMLHQLYP | 20

Source: patent CN114671948A
